Assay results from IntAct's records for PubMed 16239229.

B1: Co-chaperonin GroES (Escherichia coli (strain K12)), P0A6F9 (parent)
chain: MNIRPLHDRVIVKRKEVETKSAGGIVLTGSAAAKSTRGEVLAVGNGRILENGEVKPLDVKVGDIVIFNDGYGVKSEKIDNEEVLIMSESDILAIVEA

Variants of: B1
Details: with ch60_ecoli groEL

Row | effect of a mutation on the interaction | Variant
1 | increasing interaction | MNIRPLHDRVIVKRKEVETKSAGGIVLCGSAAAKSTRGEVLAVGNGRILENGEVKPLDVKVGDIVIFNDGYGVKSEKIDNEEVLIMSESDILAIVEA [T28C]
2 | increasing interaction strength | MNIRPLHDRVIVKRKEVETKSAGGIVLTGCAAAKSTRGEVLAVGNGRILENGEVKPLDVKVGDIVIFNDGYGVKSEKIDNEEVLIMSESDILAIVEA [S30C]
3 | increasing interaction strength | MNIRPLHDRVIVKRKEVETKSAGGIVLTCSAAAKSTRGEVLAVGNGRILENGEVKPLDVKVGDIVIFNDGYGVKSEKIDNEEVLIMSESDILAIVEA [G29C]
